Substrate: OC[C@H]1O[C@@H](O[C@H]2C(O)O[C@H](CO)[C@@H](O)[C@@H]2O)[C@H](O)[C@@H](O)[C@@H]1O
Experiment: purified protein, by the assay type
Settings: other: sophorose substrate; Gawronski phosphate release assay; 37.0 °C

B1: Rhizobium tropici β-1,2-glucan phosphorylase (RtSOGP, B6), wild type, SEQ ID NO: 11 (Martinezella tropici) (protein)
chain: MSSGTNRSFQTPRREELGLITLSNTAGLSASALPNGTLFSIDFADQQGGVMINQVLGSPVYGGIGRLYLRIGGAKPATAEIVGPKAAVQFGHGKSGFSWSGETAGVKHTISLRLHPNKTAWFWQVSLENSSNATLSADLVLVQDVGLGDRGFLMNSEAYASQYIDHHIADHSAFGPVIMVRQNLKQGGGRNPWLAQGCLEGAAAYATDAIQLLVPSKGNDGVMVPDFGTSLPSARRQHEVACPTIQSKPLALAAGAKATTTFFGLFIADHPAASSDADLAHLDGLPALQSELAAETISAGQPVRSLLQDAPLAESDDLDQAALDALYPRRMLEEHADGKLLSFFVPDGPHNRHIVLREKERLVARRHGAIVRSGQNMLLDDQTLAATCWMQGIFAAQLTIGNTSFHKLFSVSRDPYNLTRSSGLRILVDLGDGWRLLGVPAAFEMGLSDTRWIYRLPGRTIIVSAIASGDDPAMQWSVSVEGAACRFLVFGQIVLGERDYEAVANIAVDTAGKRISFQPQPSWLWDRYPKAGYHLVTSTPDAFEAIGGDELLYSDSTARNGPFIALKSHPTKALRFAVTGSMTDAQAAEALAARYTTGVESEEMLAPARRFWSHVTRGARIEGDGRDVAAQAVMLPWIAHDAIVHLSVPHGLEQYTGAAWGTRDVCQGPIEFLLAYEHDEEVRQILLTLFSEQYRDRGDWPQWFMLEPYANIRAGEAHGDIVVWPLKALCDYIEATGDIAFLAKTVPWRADDTMQLTSEHATISDHIEKLLDTVRSRFVPGTSLIRYGEGDWNDSLQPADPHLRDWMVSSWTVSLLYEQLVRYANILTLANRNDEAQSLQATAVAMRADFNRLLMRDGIVAGYGVFDPSHDGVELLLHPEDTRTGLHYSLIAMTQPMIGGLFAPEQRHAHMKIIRANLLFPDGVRLMEKPATYSGGPEKLFRRAESSSFFGREIGLMYVHAHLRYCEALALDDDAEAVWAALALANPIAVSGRVEHASLRQRNTYFSSSDAAFEDRYQASAEWTRVKAGDIAVDGGWRIYSSGPGLYTKSLIGNVFGFKRQFGQRIRKPLLPASIGACEVKLDFKA
- Km: 70 µM
- Vmax: 24 µmol/min/mg
- kcat: 50 s⁻¹
- kcat/Km: 717000 M⁻¹ s⁻¹

— US20260078420A1
